Experiments:
Test in all cases: dot blot, peptide on PVDF membrane
peptide 08/08-2′ = target: T1, peptide 08/08-2′ (Epstein-Barr virus)
T1 construct: 7-mer derived from 08/08′ (BARF1 28-38)
T1 peptide: TSYWRRV

[1] = target: T2, peptide 06/08 (BARF1 104-120) (Epstein-Barr virus)
T2 construct: Spotted on PVDF membrane for dot blot; also called 06/08104-120
T2 peptide: CRMKLGETEVTKQEHLS

peptide 08/08-2 = target: T3, peptide 08/08-2 (Epstein-Barr virus)
T3 construct: 8-mer derived from 08/08 (BARF1 27-40)
T3 peptide: TSYWRRVS

[2] = target: T4, peptide 05/08 (BARF1 201-221) (Epstein-Barr virus)
T4 construct: Spotted on PVDF membrane for dot blot; also called 05/08201-221
T4 peptide: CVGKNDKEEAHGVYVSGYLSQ

Measured: binding result

B1: anti-BARF1 3D4 monoclonal antibody (antibody, V domains shown)
VH: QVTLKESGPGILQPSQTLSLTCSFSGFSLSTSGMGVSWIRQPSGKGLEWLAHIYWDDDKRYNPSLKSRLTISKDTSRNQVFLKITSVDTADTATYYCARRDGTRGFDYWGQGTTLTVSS
VL: QIVLTQSPAIMSASLGERVTMTCTATSSVSSSYLHWYQQKPGSSPKLWIYSTSNLASGVPARFSGSGSGTSYSLTISSMEAEDAATYYCHQYHRSPPWTFGGGTKLEIK
notes: also called 3D4 mAb; clone 3D4
no binding (tested: about 10 µg/spot): all assays above
